From the supplement of paper PMC7125110
± gives the standard error. For some assays here: Variants at the floor of the assay were thinned out.

B1: glmS ribozyme (parent)
chain: AUAAAAGCGCCAGAACUACAGAAAUGUAGUUGACGAGGAGGAGGUUUAUCGAAUUUUCGGCGGAUGCCUCCAAA

How the values were obtained:
Settings in all cases: with glucosamine-6-phosphate
glucosamine-6-phosphate [1] = variants of: B1; test: kcat; higher = faster cleavage; RNA array
Procedure, shortened: (§1)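 kobs was derived by fitting per-tile medians to one- or two-exponential decays after normalising signals to baseline and to non-cleaving reference variants. Those signals came from barcoded ribozyme variants transcribed in situ by E. coli RNA polymerase on sequenced MiSeq chips, followed through a hybridised Cy3 probe at 37 °C and imaged over ~14 h. Glucosamine-6-phosphate (40 μM to 10 mM) in HEPES/KCl/Mg(OAc)2 buffer was flowed in. Weighted Michaelis–Menten fits across concentrations then gave kcat and KM.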

glucosamine-6-phosphate [2] = variants of: B1; test: KM; higher = weaker cofactor use; RNA array
Procedure, shortened: as §1

glucosamine-6-phosphate [3] = variants of: B1; test: self-cleavage kobs at 640 uM GlcN6P; higher = faster cleavage; RNA array
Procedure, shortened: as §1

glucosamine-6-phosphate [4] = variants of: B1; test: self-cleavage kobs at 2500 uM GlcN6P; higher = faster cleavage; RNA array
Procedure, shortened: as §1

glucosamine-6-phosphate [5] = variants of: B1; test: self-cleavage kobs at 10000 uM GlcN6P; higher = faster cleavage; RNA array
Procedure, shortened: as §1

glucosamine-6-phosphate [6] = variants of: B1; test: self-cleavage kobs at 160 uM GlcN6P; higher = faster cleavage; RNA array
Procedure, shortened: as §1

glucosamine-6-phosphate [7] = variants of: B1; test: self-cleavage kobs at 40 uM GlcN6P; higher = faster cleavage; RNA array
Procedure, shortened: as §1

| Variant | kcat (glucosamine-6-phosphate [1]) | KM (glucosamine-6-phosphate [2]) | self-cleavage kobs at 640 uM GlcN6P (glucosamine-6-phosphate [3]) | self-cleavage kobs at 2500 uM GlcN6P (glucosamine-6-phosphate [4]) | self-cleavage kobs at 10000 uM GlcN6P (glucosamine-6-phosphate [5]) | self-cleavage kobs at 160 uM GlcN6P (glucosamine-6-phosphate [6]) | self-cleavage kobs at 40 uM GlcN6P (glucosamine-6-phosphate [7]) |
| --- | --- | --- | --- | --- | --- | --- | --- |
| C16A U65G | 0.000487 ± 7.9e-05 s⁻¹ | 3310 ± 1000 µM | 8.78e-05 ± 1.8e-05 s⁻¹ | 0.000156 ± 5.5e-05 s⁻¹ | 0.000382 ± 5.9e-05 s⁻¹ | – | – |
| A39U U45C | 0.00276 ± 0.0012 s⁻¹ | – | 0.000268 ± 4.7e-05 s⁻¹ | 0.000599 ± 0.00011 s⁻¹ | 0.002 ± 0.00034 s⁻¹ | 8.23e-05 ± 1.6e-05 s⁻¹ | – |
| A14G U65G | 0.00446 ± 0.00028 s⁻¹ | 3780 ± 310 µM | 0.000633 ± 5.3e-05 s⁻¹ | 0.00182 ± 0.00016 s⁻¹ | 0.00321 ± 0.00033 s⁻¹ | 0.000193 ± 2.1e-05 s⁻¹ | 4.37e-05 ± 6.7e-06 s⁻¹ |
| U31G C58G | 0.000125 ± 1.3e-05 s⁻¹ | 1100 ± 400 µM | 5.51e-05 ± 1.3e-05 s⁻¹ | 7.65e-05 ± 1.2e-05 s⁻¹ | 0.000119 ± 1.3e-05 s⁻¹ | – | – |
| U45C G66U | 0.000814 ± 9.5e-05 s⁻¹ | 2830 ± 630 µM | 0.000151 ± 3.2e-05 s⁻¹ | 0.000326 ± 8.3e-05 s⁻¹ | 0.000653 ± 8.2e-05 s⁻¹ | 4.7e-05 ± 1.5e-05 s⁻¹ | – |
| G37A G59A | < 1e-05 s⁻¹ | – | – | – | – | – | < 1e-05 s⁻¹ |
| C16G A33G C71U | 1.51e-05 ± 7.7e-07 s⁻¹ | 137 ± 30 µM | – | – | < 1e-05 s⁻¹ | – | – |
| G40U G41C | 9.58e-05 ± 2.6e-05 s⁻¹ | – | – | 8.94e-05 ± 1.2e-05 s⁻¹ | 7.67e-05 ± 1.2e-05 s⁻¹ | < 1e-05 s⁻¹ | – |
| G13A G40U | 8.11e-05 ± 1e-05 s⁻¹ | 2810 ± 990 µM | – | 4.21e-05 ± 8.5e-06 s⁻¹ | 6.21e-05 ± 8.8e-06 s⁻¹ | – | < 1e-05 s⁻¹ |
| A64C C71U | 0.00012 ± 8.4e-06 s⁻¹ | 2400 ± 500 µM | – | 6.58e-05 ± 1.3e-05 s⁻¹ | 9.59e-05 ± 1.1e-05 s⁻¹ | – | – |
| U57A C67A | 0.000119 ± 3.3e-05 s⁻¹ | – | 4.64e-05 ± 1.4e-05 s⁻¹ | 4.66e-05 ± 7.6e-06 s⁻¹ | 9.37e-05 ± 1.1e-05 s⁻¹ | – | – |
| A48G U56A | 6.12e-05 ± 9.5e-06 s⁻¹ | – | – | 4.68e-05 ± 7.6e-06 s⁻¹ | 5.17e-05 ± 8.2e-06 s⁻¹ | – | – |
| G44A U47A | 0.000358 ± 9.3e-05 s⁻¹ | 3500 ± 1700 µM | 7.28e-05 ± 1.8e-05 s⁻¹ | 0.000137 ± 2.1e-05 s⁻¹ | 0.00028 ± 4.7e-05 s⁻¹ | – | < 1e-05 s⁻¹ |
| U69C C70A | 5.97e-05 ± 1.3e-05 s⁻¹ | – | 7.51e-05 ± 2e-05 s⁻¹ | 4.46e-05 ± 2.2e-05 s⁻¹ | 5.64e-05 ± 1.2e-05 s⁻¹ | – | – |
| G13U G29C | 0.000126 ± 2.5e-05 s⁻¹ | – | 4.72e-05 ± 1.7e-05 s⁻¹ | 0.00015 ± 2.3e-05 s⁻¹ | 0.000107 ± 1.4e-05 s⁻¹ | – | – |
| C11U A15G | 0.00211 ± 0.00043 s⁻¹ | 1010 ± 320 µM | 0.000746 ± 8.9e-05 s⁻¹ | 0.00141 ± 0.00022 s⁻¹ | 0.0023 ± 0.00037 s⁻¹ | 0.000249 ± 4.3e-05 s⁻¹ | 0.000103 ± 1.4e-05 s⁻¹ |
